Laboratory results as given in patent publication US20220168396A1, “MULTI-RECEPTOR AGONIST AND MEDICAL USE THEREOF” (published 2022).
Square brackets hold non-standard residues; d marks the D form. Ends that are not written are not given here. Aib = CC(C)(N)C(=O)O

B1: Compound No. 5 (peptide)
peptide: H[Aib]EGTFTSDVSSYLEEEAAKEFVNWLLAGGPSSGAPPPSK-NH2
modifications: N-terminus assumed
SMILES: CC(C)C[C@H](NC(=O)[C@H](CC(C)C)NC(=O)[C@H](Cc1c[nH]c2ccccc12)NC(=O)[C@H](CC(N)=O)NC(=O)[C@@H](NC(=O)[C@H](Cc1ccccc1)NC(=O)[C@H](CCC(=O)O)NC(=O)[C@H](CCCCN)NC(=O)[C@H](C)NC(=O)[C@H](C)NC(=O)[C@H](CCC(=O)O)NC(=O)[C@H](CCC(=O)O)NC(=O)[C@H](CCC(=O)O)NC(=O)[C@H](CC(C)C)NC(=O)[C@H](Cc1ccc(O)cc1)NC(=O)[C@H](CO)NC(=O)[C@H](CO)NC(=O)[C@@H](NC(=O)[C@H](CC(=O)O)NC(=O)[C@H](CO)NC(=O)[C@@H](NC(=O)[C@H](Cc1ccccc1)NC(=O)[C@@H](NC(=O)CNC(=O)[C@H](CCC(=O)O)NC(=O)C(C)(C)NC(=O)[C@@H](N)Cc1c[nH]cn1)[C@@H](C)O)[C@@H](C)O)C(C)C)C(C)C)C(=O)N[C@@H](C)C(=O)NCC(=O)NCC(=O)N1CCC[C@H]1C(=O)N[C@@H](CO)C(=O)N[C@@H](CO)C(=O)NCC(=O)N[C@@H](C)C(=O)N1CCC[C@H]1C(=O)N1CCC[C@H]1C(=O)N1CCC[C@H]1C(=O)N[C@@H](CO)C(=O)N[C@@H](CCCCN)C(N)=O
B2: Compound No. 3 (peptide)
peptide: Y[Aib]EGTFTSDVSSYLEEEHQKEFIAWLVRGGPSSGAPPPSK-NH2
modifications: N-terminus assumed
SMILES: CC[C@H](C)[C@H](NC(=O)[C@H](Cc1ccccc1)NC(=O)[C@H](CCC(=O)O)NC(=O)[C@H](CCCCN)NC(=O)[C@H](CCC(N)=O)NC(=O)[C@H](Cc1c[nH]cn1)NC(=O)[C@H](CCC(=O)O)NC(=O)[C@H](CCC(=O)O)NC(=O)[C@H](CCC(=O)O)NC(=O)[C@H](CC(C)C)NC(=O)[C@H](Cc1ccc(O)cc1)NC(=O)[C@H](CO)NC(=O)[C@H](CO)NC(=O)[C@@H](NC(=O)[C@H](CC(=O)O)NC(=O)[C@H](CO)NC(=O)[C@@H](NC(=O)[C@H](Cc1ccccc1)NC(=O)[C@@H](NC(=O)CNC(=O)[C@H](CCC(=O)O)NC(=O)C(C)(C)NC(=O)[C@@H](N)Cc1ccc(O)cc1)[C@@H](C)O)[C@@H](C)O)C(C)C)C(=O)N[C@@H](C)C(=O)N[C@@H](Cc1c[nH]c2ccccc12)C(=O)N[C@@H](CC(C)C)C(=O)N[C@H](C(=O)N[C@@H](CCCNC(=N)N)C(=O)NCC(=O)NCC(=O)N1CCC[C@H]1C(=O)N[C@@H](CO)C(=O)N[C@@H](CO)C(=O)NCC(=O)N[C@@H](C)C(=O)N1CCC[C@H]1C(=O)N1CCC[C@H]1C(=O)N1CCC[C@H]1C(=O)N[C@@H](CO)C(=O)N[C@@H](CCCCN)C(N)=O)C(C)C
B3: Compound No. 67 (peptide)
peptide: Y[Aib]EGTFTSDYSIYLEKEAAKEFIAWLLAGGPSSGAPPPS-NH2
modifications: N-terminus assumed
SMILES: CC[C@H](C)[C@H](NC(=O)[C@H](Cc1ccccc1)NC(=O)[C@H](CCC(=O)O)NC(=O)[C@H](CCCCN)NC(=O)[C@H](C)NC(=O)[C@H](C)NC(=O)[C@H](CCC(=O)O)NC(=O)[C@H](CCCCN)NC(=O)[C@H](CCC(=O)O)NC(=O)[C@H](CC(C)C)NC(=O)[C@H](Cc1ccc(O)cc1)NC(=O)[C@@H](NC(=O)[C@H](CO)NC(=O)[C@H](Cc1ccc(O)cc1)NC(=O)[C@H](CC(=O)O)NC(=O)[C@H](CO)NC(=O)[C@@H](NC(=O)[C@H](Cc1ccccc1)NC(=O)[C@@H](NC(=O)CNC(=O)[C@H](CCC(=O)O)NC(=O)C(C)(C)NC(=O)[C@@H](N)Cc1ccc(O)cc1)[C@@H](C)O)[C@@H](C)O)[C@@H](C)CC)C(=O)N[C@@H](C)C(=O)N[C@@H](Cc1c[nH]c2ccccc12)C(=O)N[C@@H](CC(C)C)C(=O)N[C@@H](CC(C)C)C(=O)N[C@@H](C)C(=O)NCC(=O)NCC(=O)N1CCC[C@H]1C(=O)N[C@@H](CO)C(=O)N[C@@H](CO)C(=O)NCC(=O)N[C@@H](C)C(=O)N1CCC[C@H]1C(=O)N1CCC[C@H]1C(=O)N1CCC[C@H]1C(=O)N[C@@H](CO)C(N)=O
B4: Compound No. 6 (peptide)
peptide: Y[Aib]EGTFTSDVSSYLEEEAAKEFVNWLLAGGPSSGAPPPSK-NH2
modifications: N-terminus assumed
SMILES: CC(C)C[C@H](NC(=O)[C@H](CC(C)C)NC(=O)[C@H](Cc1c[nH]c2ccccc12)NC(=O)[C@H](CC(N)=O)NC(=O)[C@@H](NC(=O)[C@H](Cc1ccccc1)NC(=O)[C@H](CCC(=O)O)NC(=O)[C@H](CCCCN)NC(=O)[C@H](C)NC(=O)[C@H](C)NC(=O)[C@H](CCC(=O)O)NC(=O)[C@H](CCC(=O)O)NC(=O)[C@H](CCC(=O)O)NC(=O)[C@H](CC(C)C)NC(=O)[C@H](Cc1ccc(O)cc1)NC(=O)[C@H](CO)NC(=O)[C@H](CO)NC(=O)[C@@H](NC(=O)[C@H](CC(=O)O)NC(=O)[C@H](CO)NC(=O)[C@@H](NC(=O)[C@H](Cc1ccccc1)NC(=O)[C@@H](NC(=O)CNC(=O)[C@H](CCC(=O)O)NC(=O)C(C)(C)NC(=O)[C@@H](N)Cc1ccc(O)cc1)[C@@H](C)O)[C@@H](C)O)C(C)C)C(C)C)C(=O)N[C@@H](C)C(=O)NCC(=O)NCC(=O)N1CCC[C@H]1C(=O)N[C@@H](CO)C(=O)N[C@@H](CO)C(=O)NCC(=O)N[C@@H](C)C(=O)N1CCC[C@H]1C(=O)N1CCC[C@H]1C(=O)N1CCC[C@H]1C(=O)N[C@@H](CO)C(=O)N[C@@H](CCCCN)C(N)=O
B5: Compound No. 4 (peptide)
peptide: Y[Aib]EGTFTSDVSSYLEEIHQKEFIAWLVRGGPSSGAPPPSK-NH2
modifications: N-terminus assumed
SMILES: CC[C@H](C)[C@H](NC(=O)[C@H](Cc1ccccc1)NC(=O)[C@H](CCC(=O)O)NC(=O)[C@H](CCCCN)NC(=O)[C@H](CCC(N)=O)NC(=O)[C@H](Cc1c[nH]cn1)NC(=O)[C@@H](NC(=O)[C@H](CCC(=O)O)NC(=O)[C@H](CCC(=O)O)NC(=O)[C@H](CC(C)C)NC(=O)[C@H](Cc1ccc(O)cc1)NC(=O)[C@H](CO)NC(=O)[C@H](CO)NC(=O)[C@@H](NC(=O)[C@H](CC(=O)O)NC(=O)[C@H](CO)NC(=O)[C@@H](NC(=O)[C@H](Cc1ccccc1)NC(=O)[C@@H](NC(=O)CNC(=O)[C@H](CCC(=O)O)NC(=O)C(C)(C)NC(=O)[C@@H](N)Cc1ccc(O)cc1)[C@@H](C)O)[C@@H](C)O)C(C)C)[C@@H](C)CC)C(=O)N[C@@H](C)C(=O)N[C@@H](Cc1c[nH]c2ccccc12)C(=O)N[C@@H](CC(C)C)C(=O)N[C@H](C(=O)N[C@@H](CCCNC(=N)N)C(=O)NCC(=O)NCC(=O)N1CCC[C@H]1C(=O)N[C@@H](CO)C(=O)N[C@@H](CO)C(=O)NCC(=O)N[C@@H](C)C(=O)N1CCC[C@H]1C(=O)N1CCC[C@H]1C(=O)N1CCC[C@H]1C(=O)N[C@@H](CO)C(=O)N[C@@H](CCCCN)C(N)=O)C(C)C
B6: Compound No. 68 (peptide)
peptide: Y[Aib]EGTFTSDVSIYLEKIAAQEFVNWLLAGGPSSGAPPPS-NH2
modifications: N-terminus assumed
SMILES: CC[C@H](C)[C@H](NC(=O)[C@H](CCCCN)NC(=O)[C@H](CCC(=O)O)NC(=O)[C@H](CC(C)C)NC(=O)[C@H](Cc1ccc(O)cc1)NC(=O)[C@@H](NC(=O)[C@H](CO)NC(=O)[C@@H](NC(=O)[C@H](CC(=O)O)NC(=O)[C@H](CO)NC(=O)[C@@H](NC(=O)[C@H](Cc1ccccc1)NC(=O)[C@@H](NC(=O)CNC(=O)[C@H](CCC(=O)O)NC(=O)C(C)(C)NC(=O)[C@@H](N)Cc1ccc(O)cc1)[C@@H](C)O)[C@@H](C)O)C(C)C)[C@@H](C)CC)C(=O)N[C@@H](C)C(=O)N[C@@H](C)C(=O)N[C@@H](CCC(N)=O)C(=O)N[C@@H](CCC(=O)O)C(=O)N[C@@H](Cc1ccccc1)C(=O)N[C@H](C(=O)N[C@@H](CC(N)=O)C(=O)N[C@@H](Cc1c[nH]c2ccccc12)C(=O)N[C@@H](CC(C)C)C(=O)N[C@@H](CC(C)C)C(=O)N[C@@H](C)C(=O)NCC(=O)NCC(=O)N1CCC[C@H]1C(=O)N[C@@H](CO)C(=O)N[C@@H](CO)C(=O)NCC(=O)N[C@@H](C)C(=O)N1CCC[C@H]1C(=O)N1CCC[C@H]1C(=O)N1CCC[C@H]1C(=O)N[C@@H](CO)C(N)=O)C(C)C

Legend:
[1] = target: T1, human glucose-dependent insulinotropic peptide receptor (human, UniProt P48546); assay: cell-based or functional assay
T1 sequence: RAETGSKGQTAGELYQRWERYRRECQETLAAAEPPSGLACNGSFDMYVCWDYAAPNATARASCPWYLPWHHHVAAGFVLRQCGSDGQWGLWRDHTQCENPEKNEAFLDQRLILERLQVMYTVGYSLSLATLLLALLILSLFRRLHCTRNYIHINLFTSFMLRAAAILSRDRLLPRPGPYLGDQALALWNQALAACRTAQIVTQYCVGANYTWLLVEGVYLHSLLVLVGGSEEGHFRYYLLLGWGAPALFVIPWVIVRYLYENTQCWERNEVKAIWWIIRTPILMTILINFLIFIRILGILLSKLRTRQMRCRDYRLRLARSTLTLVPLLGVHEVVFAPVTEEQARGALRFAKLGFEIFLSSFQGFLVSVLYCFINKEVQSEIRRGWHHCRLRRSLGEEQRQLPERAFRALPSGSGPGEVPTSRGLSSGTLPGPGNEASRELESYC

[2] = target: human glucagon-like peptide-1 receptor (human, UniProt P43220); assay: cell-based or functional assay

Binder | Activity for human GIPR (EC50 nM), cAMP HTRF [1] | Activity for human GLP-1R (EC50 nM), cAMP HTRF [2]
B1 | > 10 nM | 0.004 nM
B2 | 0.91 nM | 0.578 nM
B3 | 0.017 nM | 
B4 | 2.1 nM | 0.128 nM
B5 | > 10 nM | 0.43 nM
B6 | 0.047 nM | 
